Laboratory results as given in patent US20190352644A1, “INHIBITION OF MITOCHONDRIAL HYPOXIC STRESS INDUCED RNA EDITING BY APOBEC3G CYTIDINE DEAMINASE” (Health Research, Inc., priority 2015, published 2019).

Assays:
[1] = test system: monocyte enriched peripheral blood mononuclear cells (MEPs); test: SDHB c.136C>U RNA editing in interferon-treated MEPs (RT-PCR); type: cell-based, human; details: normoxic or hypoxic MEPs, 24 hours; IFN1 600 U per ml, IFNγ 200 U per ml; vs untreated
Description: The TLA-HEK293T™ 293T human embryonic kidney cell-line was obtained from Open Biosystems® (Huntsville, Ala.). Peripheral blood mononuclear cells of anonymous platelet donors were isolated from peripheral blood in Trima Accel™ leukoreduction system chambers (Terumo BCT®, Lakewood, Colo.) after thrombocytapheresis, in accordance with a protocol approved by the institutional review board of Roswell Park Cancer Institute. A density gradient centrifugation method using polysucrose-containing Lymphocyte Separation Medium (Mediatech®, Manassas, Va.) was used for PBMC isolation. […]
For hypoxia, cells were cultured under 1% O2, 5% CO2 and 94% N2 in an Xvivo™ System (Biospherix®, Lacona, N.Y.). […] Differential viability of MEPs after 1-day culture in normoxia versus hypoxia was not observed as evaluated by Trypan blue stain. […]
SDHB gene expression and c.136C>U RNA editing was quantified by RT-PCR. […]

NK cells = test: TM7SF3 C>U RNA editing in NK cells; type: cell-based, human; details: cellular crowding with hypoxia, IFN-γ 50 ng/ml
Description: The HuT78, JVM3 and NK-92 cell-lines were obtained from ATCC. Hut 78 cells were cultured in IMDM (ATCC) containing 20% Fetal Bovine serum (FBS) (Sigma-Aldrich), JVM3 cells were cultured in RPMI (ATCC) containing 10% FBS and NK-92 cells were cultured in Alpha Minimum Essential medium without ribonucleosides and deoxyribonucleosides (Life Technologies) but with 2 mM L-glutamine and 1.5 g/L sodium bicarbonate as well as 0.2 mM inositol, 0.1 mM 2-mercaptoethanol, 0.02 mM folic acid, 500 U/ml IL-2 (Aldesleukin—a kind gift from Novartis), 12.5% horse serum (ATCC) and 12.5% FBS. […]
Total RNA was isolated and reverse transcribed to generate cDNAs. […] To quantify RNA editing level, the major and minor chromatogram peak heights at putative edited nucleotides were quantified with Sequencher 5.0/5.1 software (Gene Codes, MI). […] For quantitative PCR to assess APOBEC3G and APOBEC3F gene expression, reactions using LightCycler™ 480 Probes Master and SYBR™ Green I dye were performed on a LightCycler™ 480 System (Roche). Quantification cycle (Cq) values were calculated by the instrument software using the maximum second derivative method, and the mean Cq value of duplicate PCR reactions was used for analysis.

B1: IFNγ: Human IFNγ (PBL Assay Science; PeproTech in Example 3) (protein, UniProt P01579 24-161, looked up)
Interferon gamma: QDPYVKEAENLKKYFNAGHSDVADNGTLFLGILKNWKEESDRKIMQSQIVSFYFKLFKNFKDDQSIQKSVETIKEDMNVKFFNSNKKKRDDFEKLTNYSVTDLNVQRKAIHELIQVMAELSPAAKTGKRKRSQMLFRG
In the case of B1, the “increase of SDHB c.136C>U RNA editing level” value [1] is reported as about 3 fold and the “RNA editing in TM7SF3” value (NK cells) is reported as “did not further increase”.
